B1: Mu_02D09_VL (SEQ ID NO: 33)_L96A (antibody, V domains shown)
VH: EVQLVESGGGLVKPGGSLTLSCAASGFTFSDYGMHWLRQAPEKGLEWVAYISSGSRAVFFADTVKGRFTISRDNAKNTLFLQMTSLRSDDTAMYYCARDRYDGRGFAYWGQGTLVTVSA
VL: DIVLTQSPATLSVTPGDSVSLSCRASQSISNNLHWYQQTSHESPRLLITYASQSISGIPSRFSGSGSGTDFTLSINSVETEDFGMYFCQQSNSWPATFGAGTKLELKR
B2: Mu_09E09_VH (SEQ ID NO: 35)_S35A (antibody, V domains shown)
VH: DVKLVESGEGLVKPGGSLKLSCAASGFTFSSYAMAWVRQTPEKRLEWVAYISSGGDYIYYADTVKGRFTISRDNARNTLYLQMSSLKSEDTAMYYCTRDPITGTFAYWGQGTLVTVSA
VL: DLQMTQTTSSLSASLGDRVTISCRASQDINNYLNWYQQKPDGTVKLLIYYTSTLHSGVPSRFSGSGSGTDYSLTISNLEQEDIATYFCQQGNTLPWTFGGGTKLEIKR
B3: Mu_09E09_VH (SEQ ID NO: 35)_Y50A (antibody, V domains shown)
VH: DVKLVESGEGLVKPGGSLKLSCAASGFTFSSYAMSWVRQTPEKRLEWVAAISSGGDYIYYADTVKGRFTISRDNARNTLYLQMSSLKSEDTAMYYCTRDPITGTFAYWGQGTLVTVSA
VL: DLQMTQTTSSLSASLGDRVTISCRASQDINNYLNWYQQKPDGTVKLLIYYTSTLHSGVPSRFSGSGSGTDYSLTISNLEQEDIATYFCQQGNTLPWTFGGGTKLEIKR
B4: Mu_09E09_VH (SEQ ID NO: 35)_Y57A (antibody, V domains shown)
VH: DVKLVESGEGLVKPGGSLKLSCAASGFTFSSYAMSWVRQTPEKRLEWVAYISSGGDAIYYADTVKGRFTISRDNARNTLYLQMSSLKSEDTAMYYCTRDPITGTFAYWGQGTLVTVSA
VL: DLQMTQTTSSLSASLGDRVTISCRASQDINNYLNWYQQKPDGTVKLLIYYTSTLHSGVPSRFSGSGSGTDYSLTISNLEQEDIATYFCQQGNTLPWTFGGGTKLEIKR
B5: Mu_09E09_VH (SEQ ID NO: 35)_D99A (antibody, V domains shown)
VH: DVKLVESGEGLVKPGGSLKLSCAASGFTFSSYAMSWVRQTPEKRLEWVAYISSGGDYIYYADTVKGRFTISRDNARNTLYLQMSSLKSEDTAMYYCTRAPITGTFAYWGQGTLVTVSA
VL: DLQMTQTTSSLSASLGDRVTISCRASQDINNYLNWYQQKPDGTVKLLIYYTSTLHSGVPSRFSGSGSGTDYSLTISNLEQEDIATYFCQQGNTLPWTFGGGTKLEIKR
B6: Mu_09E09_VH (SEQ ID NO: 35)_P100A (antibody, V domains shown)
VH: DVKLVESGEGLVKPGGSLKLSCAASGFTFSSYAMSWVRQTPEKRLEWVAYISSGGDYIYYADTVKGRFTISRDNARNTLYLQMSSLKSEDTAMYYCTRDAITGTFAYWGQGTLVTVSA
VL: DLQMTQTTSSLSASLGDRVTISCRASQDINNYLNWYQQKPDGTVKLLIYYTSTLHSGVPSRFSGSGSGTDYSLTISNLEQEDIATYFCQQGNTLPWTFGGGTKLEIKR
B7: Mu_09E09_VH (SEQ ID NO: 35)_T102A (antibody, V domains shown)
VH: DVKLVESGEGLVKPGGSLKLSCAASGFTFSSYAMSWVRQTPEKRLEWVAYISSGGDYIYYADTVKGRFTISRDNARNTLYLQMSSLKSEDTAMYYCTRDPIAGTFAYWGQGTLVTVSA
VL: DLQMTQTTSSLSASLGDRVTISCRASQDINNYLNWYQQKPDGTVKLLIYYTSTLHSGVPSRFSGSGSGTDYSLTISNLEQEDIATYFCQQGNTLPWTFGGGTKLEIKR
B8: Mu_09E09_VH (SEQ ID NO: 35)_F105A (antibody, V domains shown)
VH: DVKLVESGEGLVKPGGSLKLSCAASGFTFSSYAMSWVRQTPEKRLEWVAYISSGGDYIYYADTVKGRFTISRDNARNTLYLQMSSLKSEDTAMYYCTRDPITGTAAYWGQGTLVTVSA
VL: DLQMTQTTSSLSASLGDRVTISCRASQDINNYLNWYQQKPDGTVKLLIYYTSTLHSGVPSRFSGSGSGTDYSLTISNLEQEDIATYFCQQGNTLPWTFGGGTKLEIKR
B9: Mu_09E09_VL (SEQ ID NO: 37)_Y32A (antibody, V domains shown)
VH: DVKLVESGEGLVKPGGSLKLSCAASGFTFSSYAMSWVRQTPEKRLEWVAYISSGGDYIYYADTVKGRFTISRDNARNTLYLQMSSLKSEDTAMYYCTRDPITGTFAYWGQGTLVTVSA
VL: DLQMTQTTSSLSASLGDRVTISCRASQDINNALNWYQQKPDGTVKLLIYYTSTLHSGVPSRFSGSGSGTDYSLTISNLEQEDIATYFCQQGNTLPWTFGGGTKLEIKR
B10: Mu_09E09_VL (SEQ ID NO: 37)_N34A (antibody, V domains shown)
VH: DVKLVESGEGLVKPGGSLKLSCAASGFTFSSYAMSWVRQTPEKRLEWVAYISSGGDYIYYADTVKGRFTISRDNARNTLYLQMSSLKSEDTAMYYCTRDPITGTFAYWGQGTLVTVSA
VL: DLQMTQTTSSLSASLGDRVTISCRASQDINNYLAWYQQKPDGTVKLLIYYTSTLHSGVPSRFSGSGSGTDYSLTISNLEQEDIATYFCQQGNTLPWTFGGGTKLEIKR
B11: Mu_09E09_VL (SEQ ID NO: 37)_G91A (antibody, V domains shown)
VH: DVKLVESGEGLVKPGGSLKLSCAASGFTFSSYAMSWVRQTPEKRLEWVAYISSGGDYIYYADTVKGRFTISRDNARNTLYLQMSSLKSEDTAMYYCTRDPITGTFAYWGQGTLVTVSA
VL: DLQMTQTTSSLSASLGDRVTISCRASQDINNYLNWYQQKPDGTVKLLIYYTSTLHSGVPSRFSGSGSGTDYSLTISNLEQEDIATYFCQQANTLPWTFGGGTKLEIKR
B12: Mu_09E09_VL (SEQ ID NO: 37)_L94A (antibody, V domains shown)
VH: DVKLVESGEGLVKPGGSLKLSCAASGFTFSSYAMSWVRQTPEKRLEWVAYISSGGDYIYYADTVKGRFTISRDNARNTLYLQMSSLKSEDTAMYYCTRDPITGTFAYWGQGTLVTVSA
VL: DLQMTQTTSSLSASLGDRVTISCRASQDINNYLNWYQQKPDGTVKLLIYYTSTLHSGVPSRFSGSGSGTDYSLTISNLEQEDIATYFCQQGNTAPWTFGGGTKLEIKR
B13: Mu_10F07_VH (SEQ ID NO: 39)_I101A (antibody, V domains shown)
VH: DVKLVESGEGLVKPGGSLKLSCAASGFTFSSYAMSWVRQTPEKRLEWVTYISSGGDYFYYADTVKGRFTISRDNARNTLYLQMSSLKSEDTAMYYCTRDPATGTFAYWGQGTLVTVSA
VL: DIQMTQTTSSLSASLGDRVTISCRASQDITNYLNWYQQKPDGTVKLLIYYTSTLHSGVPSRFSGSGSGTDFSLTISNLEQEDIATYFCQQGHMLPWTFGGGTKLEIKR
B14: Mu_10F07_VL (SEQ ID NO: 41)_Y50A (antibody, V domains shown)
VH: DVKLVESGEGLVKPGGSLKLSCAASGFTFSSYAMSWVRQTPEKRLEWVTYISSGGDYFYYADTVKGRFTISRDNARNTLYLQMSSLKSEDTAMYYCTRDPITGTFAYWGQGTLVTVSA
VL: DIQMTQTTSSLSASLGDRVTISCRASQDITNYLNWYQQKPDGTVKLLIYATSTLHSGVPSRFSGSGSGTDFSLTISNLEQEDIATYFCQQGHMLPWTFGGGTKLEIKR
B15: Mu_19F07_VH (SEQ ID NO: 47)_Y33A (antibody, V domains shown)
VH: EVKLVESEGGLVQPGSSMKLSCTASGFTFSDYAMAWVRQVPEKGLEWVANINYDGSSTYYLDSLKSRFIISRDNAKNILYLQMSSLKSEDTATYYCARGLTWDFDVWGTGTTVTVSS
VL: DIVMTQSHKFMSPSVGDRVSITCKASQDVDTAVAWYQQKPGQSPKLLIYLASTRHTGVPDRFTGSGSGTDFTLTISNVQSEDLADYFCQQYSRFPLTFGAGTKLELKR
B16: Mu_19F07_VH (SEQ ID NO: 47)_Y59A (antibody, V domains shown)
VH: EVKLVESEGGLVQPGSSMKLSCTASGFTFSDYYMAWVRQVPEKGLEWVANINYDGSSTAYLDSLKSRFIISRDNAKNILYLQMSSLKSEDTATYYCARGLTWDFDVWGTGTTVTVSS
VL: DIVMTQSHKFMSPSVGDRVSITCKASQDVDTAVAWYQQKPGQSPKLLIYLASTRHTGVPDRFTGSGSGTDFTLTISNVQSEDLADYFCQQYSRFPLTFGAGTKLELKR
B17: Mu_19F07_VH (SEQ ID NO: 47)_F104A (antibody, V domains shown)
VH: EVKLVESEGGLVQPGSSMKLSCTASGFTFSDYYMAWVRQVPEKGLEWVANINYDGSSTYYLDSLKSRFIISRDNAKNILYLQMSSLKSEDTATYYCARGLTWDADVWGTGTTVTVSS
VL: DIVMTQSHKFMSPSVGDRVSITCKASQDVDTAVAWYQQKPGQSPKLLIYLASTRHTGVPDRFTGSGSGTDFTLTISNVQSEDLADYFCQQYSRFPLTFGAGTKLELKR
B18: Mu_19F07_VL (SEQ ID NO: 49)_L50A (antibody, V domains shown)
VH: EVKLVESEGGLVQPGSSMKLSCTASGFTFSDYYMAWVRQVPEKGLEWVANINYDGSSTYYLDSLKSRFIISRDNAKNILYLQMSSLKSEDTATYYCARGLTWDFDVWGTGTTVTVSS
VL: DIVMTQSHKFMSPSVGDRVSITCKASQDVDTAVAWYQQKPGQSPKLLIYAASTRHTGVPDRFTGSGSGTDFTLTISNVQSEDLADYFCQQYSRFPLTFGAGTKLELKR
B19: Mu_19F07_VL (SEQ ID NO: 49)_T53A (antibody, V domains shown)
VH: EVKLVESEGGLVQPGSSMKLSCTASGFTFSDYYMAWVRQVPEKGLEWVANINYDGSSTYYLDSLKSRFIISRDNAKNILYLQMSSLKSEDTATYYCARGLTWDFDVWGTGTTVTVSS
VL: DIVMTQSHKFMSPSVGDRVSITCKASQDVDTAVAWYQQKPGQSPKLLIYLASARHTGVPDRFTGSGSGTDFTLTISNVQSEDLADYFCQQYSRFPLTFGAGTKLELKR

Legend:
[1] = target: Feline_OSMR_hlgG1_Fc (feline); experiment: SPR Biacore
[2] = target: Feline_OSMR_hlgG1_Fc (feline); experiment: indirect ELISA, fOSMR coated; OD ratio to antibody expression control

Sequence of Feline_OSMR_hlgG1_Fc (feline) (chain, as listed by the source limits assumed, form in doubt): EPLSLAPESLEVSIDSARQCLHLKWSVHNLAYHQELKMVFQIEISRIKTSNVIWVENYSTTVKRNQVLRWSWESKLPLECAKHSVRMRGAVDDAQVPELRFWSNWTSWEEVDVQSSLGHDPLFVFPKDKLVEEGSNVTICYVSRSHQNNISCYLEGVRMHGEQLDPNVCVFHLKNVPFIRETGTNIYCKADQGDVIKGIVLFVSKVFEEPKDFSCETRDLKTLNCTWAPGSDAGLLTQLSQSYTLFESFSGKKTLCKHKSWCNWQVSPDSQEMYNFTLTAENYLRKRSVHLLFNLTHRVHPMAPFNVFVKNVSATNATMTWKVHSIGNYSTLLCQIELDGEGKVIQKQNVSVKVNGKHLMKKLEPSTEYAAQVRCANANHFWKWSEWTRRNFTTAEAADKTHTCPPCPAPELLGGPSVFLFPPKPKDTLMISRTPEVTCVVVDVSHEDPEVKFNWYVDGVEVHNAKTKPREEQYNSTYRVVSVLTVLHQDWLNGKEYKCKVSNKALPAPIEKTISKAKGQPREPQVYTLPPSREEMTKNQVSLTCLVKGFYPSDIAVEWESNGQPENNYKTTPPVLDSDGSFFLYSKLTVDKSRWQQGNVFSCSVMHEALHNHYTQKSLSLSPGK

Row | Binder | Kd [1] [nM] | koff [1] [s⁻¹] | kon [1] [M⁻¹ s⁻¹] | ELISA ratio [2] [OD ratio]
1 | B1 | 0.000648 | 2.85e-07 | 440000 | 1.27
2 | B2 | 1.37 | 0.00104 | 756000 | 1.05
3 | B3 | 2.85 | 0.00177 | 622000 | 0.31
4 | B4 | 2.54 | 0.0024 | 943000 | 0.052
5 | B5 | 1.76 | 0.00108 | 612000 | 0.908
6 | B6 | 1.27 | 0.000926 | 729000 | 0.946
7 | B7 | 1.94 | 0.00187 | 964000 | 0.388
8 | B8 | 2.4 | 0.00186 | 772000 | 0.256
9 | B9 | 0.632 | 0.00158 | 2.51e+06 | 0.092
10 | B10 | 5.02 | 0.00161 | 321000 | 0.023
11 | B11 | 2.21 | 0.00203 | 918000 | 0.136
12 | B12 | 0.621 | 0.00167 | 2.68e+06 | 0.055
13 | B13 | 6.88 | 0.000701 | 102000 | 0
14 | B14 | 0.00714 | 1.73e-06 | 242000 | 0
15 | B15 | 0.407 | 0.000108 | 266000 | 1.06
16 | B16 | 0.4 | 0.000141 | 351000 | 0.74
17 | B17 | – | – | 144000 | 0.982
18 | B18 | 0.0143 | 5.86e-07 | 41100 | 1.11
19 | B19 | 0.00536 | 9.05e-07 | 169000 | 0.821
